B1: Ang2-BDWT, soluble (domain or fragment, human, UniProt O15123 281-496, looked up)
chain: FRDCAEVFKSGHTTNGIYTLTFPNSTEEIKAYCDMEAGGGGWTIIQRREDGSVDFQRTWKEYKVGFGNPSGEYWLGNEFVSQLTNQQRYVLKIHLKDWEGNEAYSLYEHFYLSSEELNYRIHLKGLTGTAGKISSISQPGNDFSTKDGDNDKCICKCSQMLTGGWWFDACGPSNLNGMYYPQRQNTNKFNGIKWYYWKGSGYSLKATTMMIRPADF
notes: N-linked carbohydrates removed with Endo Hf; also called wild-type Ang2-BD; parental Ang2-BD; source: Pichia pastoris GS115, purified from culture supernatant (HisTrap, Endo Hf treatment, Superdex 75); not shown: FLAG, N-terminal, kept

Experiments:
[1] = target: Ang2-BD_(C2.36), yeast-displayed (human) (UniProt O15123); assay: flow cytometry on cells; Ang2-BD displayed on yeast, soluble Tie2-Fc in 20 mM Hepes pH 7.0, 150 mM NaCl, 1% BSA, 1 h at room temperature; detected with anti-human Fc FITC; binding MFI divided by expression MFI (c-Myc) and normalized to Ang2-BDWT
[2] = target: Ang2-BD_(C1.70), yeast-displayed (human) (UniProt O15123); assay: as above
[3] = target: T1, rhTie2 extracellular domain (human, UniProt Q02763 23-748); assay: SPR; ProteOn XPR36, rhTie2 extracellular domain amine-coupled to a GLC chip (2100 RU), Ang2-BD variants as analytes, 25°C, 20 mM Hepes pH 7.0, 150 mM NaCl, 1 mM CaCl2; steady state for Ang2-BDWT, two-state model for the variants; conditions: both partners purified
T1 construct: receptor tyrosine kinase Tie2, recombinant human, extracellular domain; also called immobilized Tie2; recombinant soluble Tie2; source: bought: Sino Biological Inc
T1 sequence (Q02763 23-748): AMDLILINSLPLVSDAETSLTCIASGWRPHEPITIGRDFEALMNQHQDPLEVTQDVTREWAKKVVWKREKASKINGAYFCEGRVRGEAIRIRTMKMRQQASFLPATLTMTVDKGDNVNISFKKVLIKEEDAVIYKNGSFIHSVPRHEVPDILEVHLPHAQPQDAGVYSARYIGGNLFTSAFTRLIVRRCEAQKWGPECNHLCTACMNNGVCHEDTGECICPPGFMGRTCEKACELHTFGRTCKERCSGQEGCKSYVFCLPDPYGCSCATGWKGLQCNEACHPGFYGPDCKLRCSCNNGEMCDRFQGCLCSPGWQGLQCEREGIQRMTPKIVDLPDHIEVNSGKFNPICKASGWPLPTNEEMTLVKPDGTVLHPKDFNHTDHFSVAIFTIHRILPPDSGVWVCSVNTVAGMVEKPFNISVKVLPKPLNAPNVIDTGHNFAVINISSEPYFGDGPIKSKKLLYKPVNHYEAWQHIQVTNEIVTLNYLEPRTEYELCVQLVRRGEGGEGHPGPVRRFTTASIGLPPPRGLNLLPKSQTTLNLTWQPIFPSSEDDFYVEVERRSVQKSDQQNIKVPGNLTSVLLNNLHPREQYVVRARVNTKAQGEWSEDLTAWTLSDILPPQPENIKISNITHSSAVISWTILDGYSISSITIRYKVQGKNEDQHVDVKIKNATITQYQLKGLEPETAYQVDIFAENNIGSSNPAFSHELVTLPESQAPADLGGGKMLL

| fold increase in binding affinity as compared to Ang2-BDWT [1] | fold increase in affinity relative to Ang2-BDWT [2] | Kd [3] | Molecule |
| --- | --- | --- | --- |
| 17 fold | 2.5 fold |  | Recombinant human Tie2 (Ala23-Lys745) Fc fusion, soluble Tie2-Fc (from UniProt Q02763 23-745) |
|  |  | 434 nM | B1 |
